Results on 28 sequences are retold here after the supplement of paper PMC9170038.

The data set deals with MS2 coat protein. Nature of the data set: apparent KD of MS2 coat protein; designed switch direction (-1 OFF switch, 1 ON switch): 1; higher = weaker reporter binding. A digest of the protocol:
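Stalled E. coli RNA polymerase transcribed designed RNA switches on Illumina chips, which were then titrated with SNAP-549-labelled MS2 coat protein, doubling from 0.7 or 1.5 nM to 3 µM. Steps lasted from 0.8–1.5 h at the lowest concentration to 10–20 min at the highest. The apparent KD is each design's median over clusters of curve-fitted normalised fluorescence.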

Setting [1] is: Eterna round: R95, input ligand: FMN 200 uM.
Setting [2] is: Eterna round: R95, input ligand: microRNA oligo, concentration not stated.
Setting [3] is: Eterna round: R95, input ligand: none.
Setting [4] is: input ligand: microRNA oligo, concentration not stated.

As to “GUUAAACAUGAGGAUCACCCAUGUAAUAAUAUGGGAGGAUAUGGGAAUUAAUUAAUUAAACCAGAAGGCCUAAUUG [Mat - Same State 1 - D84] (puzzle: Same State 1)”, the “apparent KD of MS2 coat protein” value is, setting by setting: under setting [1], 25.3 nM; under setting [2], 142 nM; under setting [3], 189 nM.

“GUUACAUGAGGAUCACCCAUGUAUGUGUGGGAGUAAGUGUCUUAGGAUAUCUAUCAUUGAAUUUAAGAGAAGGAAGAUUGUUGU [JMF's solution 92] (Eterna round: R96, puzzle: Same State NG 3)”: the “apparent KD of MS2 coat protein” value under setting [4] is 81.3 nM.

Turning to “GUUACAUGAGGAUCACCCAUGUAUGUGUGGGAGUAAGUGUCUUAGGAUAUCUAUGAUUUAAUUGAAGAGAAGGAAGAUUGUUGU [JMF's solution 84] (Eterna round: R96, puzzle: Same State NG 3)”, the “apparent KD of MS2 coat protein” value under setting [4] was found to be 99.1 nM.

As to “GUUACAUGAGGAUCACCCAUGUAUGUGUGGGAGUAAGUGUCUUAGGAUAUCUAUGAUUUAGUUUAAGAGAAGGAAGAUUGUUGU [JMF's solution 79] (Eterna round: R96, puzzle: Same State NG 3)”, the “apparent KD of MS2 coat protein” value runs as follows: (input ligand: FMN 200 uM) 117 nM; under setting [4], 86.3 nM; (input ligand: none) 111 nM.

As for “GUUACAUGAGGAUCACCCAUGUAUGUGUGGGAGUAAGUGUCUUAGGAUAUCUAUUAUUUAAUUUUAGAGAAGGAAGAUUGUUGU [JMF's solution 27] (Eterna round: R96, puzzle: Same State NG 3)”, the “apparent KD of MS2 coat protein” value was 138 nM (input ligand: FMN 200 uM), 105 nM under setting [4] and 120 nM (input ligand: none).

Turning to “GUUACAUGAGGAUCACCCAUGUAUGUGUGGGAGUAAGUGUCUUAGGAUAUCUGUUAUUUAAGUUAAGAGAAGGAAGAUUGUUGU [JMF's solution 42] (Eterna round: R96, puzzle: Same State NG 3)”, the “apparent KD of MS2 coat protein” value was 92.8 nM (input ligand: FMN 200 uM), 45.6 nM under setting [4] and 82.4 nM (input ligand: none).

Turning to “GUUAUACAUGAGGAUCACCCAUGUCAAUGUAGUCGAGGAUAUGGGCAGCUAUGAGGCGUACUAGAAGGCGAAGAGU [JL-ss1-3.12 ViennaUCT mod] (puzzle: Same State 1)”, the “apparent KD of MS2 coat protein” value is, setting by setting: under setting [1], 164 nM; under setting [2], 374 nM; under setting [3], 309 nM.

As for “UAAAGAUCGCGAGGAUAUCGCGAGGAUCACCCGUGAGAAGGCGCAGAGCCGAGGAUCACCCGGCUGAUCCUGAGGAGGAGGUAA (Eterna round: R96, puzzle: Same State NG 1)”, the “apparent KD of MS2 coat protein” value turned out to be 249 nM (input ligand: FMN 200 uM), 410 nM under setting [4] and 556 nM (input ligand: none).

For the sequence “UAAAUAAAGUAAGGAUAUACAUGAGGAUCUCUCGUAGAAGGUACUAUACAUGAGGAUCACCCAUGUGCCGGUCCGUAGACUGGA [Mat - Same State NG 1 - JL mod - D8] (Eterna round: R96, puzzle: Same State NG 1)”, the “apparent KD of MS2 coat protein” value reads like this: (input ligand: FMN 200 uM) 475 nM; under setting [4], 107 nM; (input ligand: none) 68.8 nM.

Regarding “UACAAUCUAUCUGAGGAUAUCAUGAAGAAAACAUGAGGAUCACCCAUGUGCAGGAGAACUGCAAAUGAGAAGGCAGAUAGAUUGU [Mat - Same State 2 - Mod - D1] (puzzle: Same State 2)”, the “apparent KD of MS2 coat protein” value turned out to be 9.46 nM under setting [1], 12.9 nM under setting [2] and 13.4 nM under setting [3].

“UAGACAAGCUUUAUGUUCUUCCUAUUCCAACAUGAGGAUCACCCAUGUAGUCUGUCGAUUGUGAGUGUAGUUGAGAU [JR_SHM208A_Sub026] (puzzle: Sensor for hsa-mir-208a)”: the “apparent KD of MS2 coat protein” value reads like this: under setting [1], 57.8 nM; under setting [2], 52 nM; under setting [3], 61.9 nM.

As to “UAGGGACAUGAGGAUCACCCAUGUGCCUCAUAUGGAGAAACUCAGGAUAUGCUGAGGAUCACCCGGCAGAAGGGAGAUUUGAGG (Eterna round: R96, puzzle: Same State NG 3)”, the “apparent KD of MS2 coat protein” value reads like this: (input ligand: FMN 200 uM) 42.3 nM; under setting [4], 26.3 nM; (input ligand: none) 36.4 nM.

With “UAGGUUGAGCAAGGAUAUCCAAGAUUGAUUCGUAUCGACAUGAGGAUCACCCAUGUCCCGAGAAGGGAGAAGGUGCGUCCAACC [Eternabot solution 30] (Eterna round: R96, puzzle: Same State NG 2)”, the “apparent KD of MS2 coat protein” value was determined as 15.4 nM (input ligand: FMN 200 uM), 27.9 nM under setting [4] and 42.3 nM (input ligand: none).

As to “UAGUGAUUGCAAGGAUAUGCUAGUUUUUAUUUGUGUUUGAUAUCUAACAUGAGGAUCACCCAUGUGCAGAAGGUGCUUGAUUUG [JR_SSNG2_Sub077] (Eterna round: R96, puzzle: Same State NG 2)”, under setting [4], the “apparent KD of MS2 coat protein” value was 68.6 nM.

As to “UAGUGUUUGCGAGGAUAUCGUUUGUUGAAGUUACGAGAAGGCGCUCUAAUUACAUGAGGAUCACCCAUGUCUGUGAUGCAUGAU [JR_SSNG1_Sub070] (Eterna round: R96, puzzle: Same State NG 1)”, the “apparent KD of MS2 coat protein” value (input ligand: FMN 200 uM) stood at 65.2 nM, the “apparent KD of MS2 coat protein” value under setting [4] was 56.3 nM and the “apparent KD of MS2 coat protein” value (input ligand: none) came out at 70 nM.

On to “UAUGAAUUACAAGGAUAUUAAUAACAUGAGGAUCACCCAUGUGGCUGUGAGAGUUAGAUAAGCUAUAAGAAGGUGUGUGUGUUU [JR_SSNG2_Sub093] (Eterna round: R96, puzzle: Same State NG 2)”, for which the “apparent KD of MS2 coat protein” value reads like this: (input ligand: FMN 200 uM) 93.1 nM; under setting [4], 196 nM; (input ligand: none) 267 nM.

With “UAUUUAAUCAUAGGAUAUAGUGUGAAAUUUGGACUAGAAGGAUGUAACAUGAGGAUCACCCAUGUGGUAAGUGGGACACAUUGA [JR_SSNG1_Sub097] (Eterna round: R96, puzzle: Same State NG 1)”, the “apparent KD of MS2 coat protein” value under setting [4] worked out at 86.7 nM.

As for “UCAAGCGAGAGGCUCGUCUUAUGUUUGGUACAUGAGGAUCACCCAUGUUAGGGACGAUUUAGUUAGAUGGAAUGGAG [JR_SHM208A_Sub034] (puzzle: Sensor for hsa-mir-208a)”, the “apparent KD of MS2 coat protein” value was 57.3 nM under setting [1], 148 nM under setting [2] and 69.6 nM under setting [3].

Regarding “UCAGUCAUGUAAGGAUAUGCAGCCGAAACGGCUGCAGAAGGUACUAUAAUUACAUGAGGAUCACCCAUGUUAUAAAAUAAAUAU [Mat - Same State NG 1 - JL mod - D65] (Eterna round: R96, puzzle: Same State NG 1)”, the “apparent KD of MS2 coat protein” value (input ligand: FMN 200 uM) was 18.4 nM, the “apparent KD of MS2 coat protein” value under setting [4] came to 36 nM and the “apparent KD of MS2 coat protein” value (input ligand: none) was 76.6 nM.

With “UCGGGCGUACUUGCUGACAUGAGGAUCACCCAUGUCCUUGGGCAGGAUAUGGUUCCGUUUCGGUUCCAGAAGGUCCUGGCUGCU [salish99_SSNG3_r04_318] (Eterna round: R96, puzzle: Same State NG 3)”, the “apparent KD of MS2 coat protein” value was determined as 18.1 nM (input ligand: FMN 200 uM), 24.4 nM under setting [4] and 25.5 nM (input ligand: none).

Regarding “UCUUGGUUUUUGCUCGUUUUUUGUGUUGAACAUGAGGAUCACCCAUGUAUUGUACAGUCCGAUUUAAUAAUGGUCCG [JMF 57] (puzzle: Sensor for hsa-mir-208a)”, the “apparent KD of MS2 coat protein” value under setting [1] came to 31.5 nM, the “apparent KD of MS2 coat protein” value under setting [2] was found to be 26 nM and the “apparent KD of MS2 coat protein” value under setting [3] is 33.8 nM.

Take “UCUUGGUUUUUGCUCGUUUUUUGUGUUGAACAUGAGGAUCACCCAUGUAUUGUACGAUCCGGUUUAGUGAUGGUCCG [JMF 63] (puzzle: Sensor for hsa-mir-208a)”: the “apparent KD of MS2 coat protein” value runs as follows: under setting [1], 40.8 nM; under setting [2], 27.7 nM; under setting [3], 42.1 nM.

“UCUUGGUUUUUGCUCGUUUUUUGUGUUGAACAUGAGGAUCACCCAUGUAUUGUACGGUCCAAUUUAAUAAUAGUCCA [JMF 75] (puzzle: Sensor for hsa-mir-208a)”: the “apparent KD of MS2 coat protein” value by setting is: under setting [1], 62.3 nM; under setting [2], 52.8 nM; under setting [3], 75.5 nM.

Turning to “UCUUGGUUUUUGCUCGUUUUUUGUGUUGAACAUGAGGAUCACCCAUGUAUUGUACGGUCCAAUUUAGUAGUGGUCCG [JMF 25] (puzzle: Sensor for hsa-mir-208a)”, the “apparent KD of MS2 coat protein” value by setting is: under setting [1], 26.6 nM; under setting [2], 15.3 nM; under setting [3], 26.2 nM.

For “UCUUGGUUUUUGCUCGUUUUUUGUGUUGAACAUGAGGAUCACCCAUGUAUUGUACGGUCCGAUUUAGUGAUGGUCCA [JMF 40] (puzzle: Sensor for hsa-mir-208a)”, the “apparent KD of MS2 coat protein” value under setting [1] was found to be 36.9 nM, the “apparent KD of MS2 coat protein” value under setting [2] is 18.4 nM and the “apparent KD of MS2 coat protein” value under setting [3] is 42.5 nM.

For “UCUUGGUUUUUGCUCGUUUUUUGUGUUGAACAUGAGGAUCACCCAUGUAUUGUACGGUCCGAUUUAGUGGUAGUCCG [JMF 72] (puzzle: Sensor for hsa-mir-208a)”, the “apparent KD of MS2 coat protein” value stood at 34.7 nM under setting [1], 23.5 nM under setting [2] and 36 nM under setting [3].

“UCUUGGUUUUUGCUCGUUUUUUGUGUUGAACAUGAGGAUCACCCAUGUAUUGUACGGUCCGGUUUGAUGAUGGUCCA [JMF 46] (puzzle: Sensor for hsa-mir-208a)”: the “apparent KD of MS2 coat protein” value reads like this: under setting [1], 35.6 nM; under setting [2], 23.9 nM; under setting [3], 38.3 nM.

For the sequence “UGAAUAUUUACAGGAUAUGAGUUGUAUAGUGGGUCAGAAGGGUGGGUGUUUUGCACGGUGUGUUACAUGAGGAUCACCCAUGUU [SameState NG1 #27] (Eterna round: R96, puzzle: Same State NG 1)”, the “apparent KD of MS2 coat protein” value runs as follows: (input ligand: FMN 200 uM) 129 nM; under setting [4], 74.5 nM; (input ligand: none) 146 nM.
